The target in data set [1] is T1, AthPEPCK1 WT (Arabidopsis thaliana, UniProt Q9T074).
T1 sequence (Q9T074 2-671): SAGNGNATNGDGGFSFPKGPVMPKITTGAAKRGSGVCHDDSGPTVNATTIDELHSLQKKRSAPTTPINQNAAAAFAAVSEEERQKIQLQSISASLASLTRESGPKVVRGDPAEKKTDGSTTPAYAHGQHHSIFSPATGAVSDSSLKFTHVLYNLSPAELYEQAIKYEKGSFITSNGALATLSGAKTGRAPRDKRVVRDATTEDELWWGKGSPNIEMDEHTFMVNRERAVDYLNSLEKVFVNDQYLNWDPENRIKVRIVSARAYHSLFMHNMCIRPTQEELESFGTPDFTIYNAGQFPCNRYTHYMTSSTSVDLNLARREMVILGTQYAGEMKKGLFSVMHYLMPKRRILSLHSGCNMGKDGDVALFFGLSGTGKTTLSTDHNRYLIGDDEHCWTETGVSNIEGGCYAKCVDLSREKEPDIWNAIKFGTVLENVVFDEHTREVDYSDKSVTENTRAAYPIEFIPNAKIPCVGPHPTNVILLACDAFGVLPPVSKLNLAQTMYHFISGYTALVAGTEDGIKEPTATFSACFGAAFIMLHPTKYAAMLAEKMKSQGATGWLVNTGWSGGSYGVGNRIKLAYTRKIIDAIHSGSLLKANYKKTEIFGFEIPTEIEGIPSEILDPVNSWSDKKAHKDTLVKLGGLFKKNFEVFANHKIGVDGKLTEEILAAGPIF
The data set is described as follows: activity with effector, carboxylation direction. The class given is biochemical. The note with it: allosteric activator; 10 mM PEP, 0.13 mM ADP.

The target in data set [2] is T2, AthPEPCK1 Δ101 (Arabidopsis thaliana, UniProt Q9T074).
T2 sequence (Q9T074 102-671): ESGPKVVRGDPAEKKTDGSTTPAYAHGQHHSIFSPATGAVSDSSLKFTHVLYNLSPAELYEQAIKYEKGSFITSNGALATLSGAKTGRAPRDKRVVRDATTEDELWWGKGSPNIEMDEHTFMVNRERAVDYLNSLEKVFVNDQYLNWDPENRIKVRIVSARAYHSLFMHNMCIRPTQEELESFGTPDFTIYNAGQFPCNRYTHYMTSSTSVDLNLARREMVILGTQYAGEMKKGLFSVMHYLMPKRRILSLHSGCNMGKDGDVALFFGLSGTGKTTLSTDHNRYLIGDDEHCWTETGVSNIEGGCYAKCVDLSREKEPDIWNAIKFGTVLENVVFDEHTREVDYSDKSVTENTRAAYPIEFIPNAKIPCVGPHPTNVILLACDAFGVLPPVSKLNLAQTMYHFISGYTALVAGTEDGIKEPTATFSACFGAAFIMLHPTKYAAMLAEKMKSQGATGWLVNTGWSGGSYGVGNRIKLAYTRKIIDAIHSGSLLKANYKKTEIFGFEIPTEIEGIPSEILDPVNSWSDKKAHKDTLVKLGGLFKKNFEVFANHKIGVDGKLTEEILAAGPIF
The data set can be described thus: activity with effector, decarboxylation direction. The class given is biochemical. The note with it: allosteric activator; 0.5 mM OAA, 0.3 mM ATP.

Substrate in data set [3]: Nc1ncnc2c1ncn2[C@@H]1O[C@H](COP(=O)(O)OP(=O)(O)O)[C@@H](O)[C@H]1O
The data set can be described thus: steady-state kinetics, carboxylation direction. The class given is biochemical, Arabidopsis thaliana.

Substrate in data set [4]: Nc1ncnc2c1ncn2[C@@H]1O[C@H](COP(=O)(O)OP(=O)(O)OP(=O)(O)O)[C@@H](O)[C@H]1O
The data set is described as follows: purified protein. The note with it: 0.5 mM OAA.

For `O=C(O)C[C@H](O)C(=O)O` [malate], in data set [1], the fold activation stood at 2 fold.
In data set [2], `O=P(O)(O)OC[C@H]1OC(O)[C@H](O)[C@@H](O)[C@@H]1O` (stereo partly shown) [Glc6P] yielded a fold activation of 2 fold.

B1: AthPEPCK1 Δ19 (Arabidopsis thaliana) (protein)
chain: GPVMPKITTGAAKRGSGVCHDDSGPTVNATTIDELHSLQKKRSAPTTPINQNAAAAFAAVSEEERQKIQLQSISASLASLTRESGPKVVRGDPAEKKTDGSTTPAYAHGQHHSIFSPATGAVSDSSLKFTHVLYNLSPAELYEQAIKYEKGSFITSNGALATLSGAKTGRAPRDKRVVRDATTEDELWWGKGSPNIEMDEHTFMVNRERAVDYLNSLEKVFVNDQYLNWDPENRIKVRIVSARAYHSLFMHNMCIRPTQEELESFGTPDFTIYNAGQFPCNRYTHYMTSSTSVDLNLARREMVILGTQYAGEMKKGLFSVMHYLMPKRRILSLHSGCNMGKDGDVALFFGLSGTGKTTLSTDHNRYLIGDDEHCWTETGVSNIEGGCYAKCVDLSREKEPDIWNAIKFGTVLENVVFDEHTREVDYSDKSVTENTRAAYPIEFIPNAKIPCVGPHPTNVILLACDAFGVLPPVSKLNLAQTMYHFISGYTALVAGTEDGIKEPTATFSACFGAAFIMLHPTKYAAMLAEKMKSQGATGWLVNTGWSGGSYGVGNRIKLAYTRKIIDAIHSGSLLKANYKKTEIFGFEIPTEIEGIPSEILDPVNSWSDKKAHKDTLVKLGGLFKKNFEVFANHKIGVDGKLTEEILAAGPIF
In general, Km refers to the substrate concentration at which the rate is half of its maximum. The term kcat denotes the number of substrate molecules converted per active site and unit of time at saturation. As for B1, the Km in data set [3] (5 mM PEP) came out at 40 ± 1 µM; in data set [4], 29 ± 6 µM. Also, the figures for the kcat in data set [3] (5 mM PEP) and in data set [4] were 2.64 ± 0.06 s⁻¹ and 3.38 ± 0.06 s⁻¹, respectively.

B2: AthPEPCK1 Δ101 (Arabidopsis thaliana) (protein)
chain: T2 sequence (Q9T074 102-671)
With B2, in data set [3] (15 mM PEP), the Michaelis-Menten constant (Km) worked out at 57 ± 6 µM and the kcat was 3.01 ± 0.08 s⁻¹. In data set [4], the Km is 80 ± 10 µM and the kcat came to 3.9 ± 0.2 s⁻¹.

The values above are taken from paper doi:10.1101/2020.07.29.226720v1 (biorxiv, 2020).
